Results from US20230076643A1.

Target: T1, CD6 (UniProt P30203)
T1 sequence (looked up): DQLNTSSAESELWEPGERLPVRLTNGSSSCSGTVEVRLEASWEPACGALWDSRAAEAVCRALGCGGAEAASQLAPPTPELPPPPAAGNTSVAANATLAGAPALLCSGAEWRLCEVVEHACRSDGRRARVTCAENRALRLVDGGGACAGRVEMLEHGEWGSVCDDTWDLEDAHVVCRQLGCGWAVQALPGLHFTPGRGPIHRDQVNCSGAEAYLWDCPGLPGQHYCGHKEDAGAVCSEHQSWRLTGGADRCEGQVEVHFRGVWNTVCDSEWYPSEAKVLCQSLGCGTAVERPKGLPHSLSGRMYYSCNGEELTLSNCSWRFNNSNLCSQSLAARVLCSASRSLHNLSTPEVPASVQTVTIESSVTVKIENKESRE
Experiment: binding assay of FIG. 7 on CAR Tregs; method not described

- Kd: 50 nM
B1: CD6 CAR (representative CD6 CAR, expressed on Treg) (protein, part only; not given: hinge, transmembrane and signalling domains, part only)
scFv, part: EVQLVESGGGLVKPGGSLKLSCAASGFKFSRYAMSWVRQAPGKRLEWVATISSGGSYIYYPDSVKGRFTISRDNVKNTLYLQMSSLRSEDTAMYYCARRDYDLDYFDSWGQGTLVTVSSGSTSGGGSGGGSGGGGSSDIQMTQSPSSLSASVGDRVTITCKASRDIRSYLTWYQQKPGKAPKTLIYYATSLADGVPSRFSGSGSGQDYSLTISSLESDDTATYYCLQHGESPFTFGSGTKLEIKRA
